The text below walks through data of publication PMC5910394, “Mechanically interlocked functionalization of monoclonal antibodies” (Nature Communications, 2018).

Positions of bridges follow the written chain, without caps; N, C: chain ends. Non-standard residues stand in square brackets, D forms with d. Groups on a side chain read outwards from the residue. No end group written: not given here. *: point of attachment. Dip = N[C@H](C(=O)O)C(c1ccccc1)c1ccccc1; azide = [N-]=[N+]=N*

Assay [1] concerns the target Ile83Glu anti-HER2 memAb. Briefly: SPR; memAb variant amine-coupled to a CM5 chip, peptide flowed over at 30 uL/min, HBS-EP+, 25 °C, Biacore T100, 1:1 binding model.
Assay [2] addresses Ile83Glu anti-HER2 memAb. The assay can be described thus: SPR; memAb variant amine-coupled to a CM5 chip, peptide flowed over at 30 uL/min, HBS-EP+, 37 °C, Biacore T100, 1:1 binding model. (SPR reads the build-up and loss of mass on a sensor chip optically.)
Assay [3] has as its target Ile83Glu memAb anti-HER2 IgG. Briefly: SPR; Ile83Glu memAb anti-HER2 amine-coupled on a CM5 chip, meditope flowed over at 30 uL/min, HBS-EP+, 37 °C, 1:1 model, global fit, n=4, standard deviation.
Assay [4] deals with memAb anti-HER2 (meditope-enabled, trastuzumab-based anti-HER2 antibody). Briefly: SPR; memAb anti-HER2 amine-coupled on a CM5 chip, meditope flowed over at 30 uL/min, HBS-EP+, 25 °C, 1:1 model, global fit, n=1 (authors estimate the error at 10-50%).
Assay [5] shares this target. The assay can be described thus: SPR; memAb anti-HER2 amine-coupled on a CM5 chip, meditope flowed over at 30 uL/min, HBS-EP+, 37 °C, 1:1 model, global fit, n=1 (authors estimate the error at 10-50%).
For assay [6], the target named is Ile83Glu memAb anti-HER2 IgG. Briefly: SPR; Ile83Glu memAb anti-HER2 amine-coupled on a CM5 chip, meditope flowed over at 30 uL/min, HBS-EP+, 25 °C, 1:1 model, global fit, n=1 (authors estimate the error at 10-50%).
Assay [7] deals with Ile83Glu memAb anti-HER2 IgG. Briefly: SPR; Ile83Glu memAb anti-HER2 IgG immobilized on the sensor chip, 37 °C, n=1, analyte as a two-fold dilution series from 500 pM to 39 pM, 1:1 interaction model.
Assay [8] concerns the target anti-HER2 memAb (trastuzumab-based, meditope-enabled anti-HER2 antibody). The assay can be described thus: SPR; memAb variant amine-coupled to a CM5 chip, peptide flowed over at 30 uL/min, HBS-EP+, 25 °C, Biacore T100, 1:1 binding model.
For assay [9] the target is unchanged. The assay can be described thus: SPR; memAb variant amine-coupled to a CM5 chip, peptide flowed over at 30 uL/min, HBS-EP+, 37 °C, Biacore T100, 1:1 binding model.
Assay [10] concerns the target Ile83Glu anti-HER2 memAb. The assay can be described thus: SPR; memAb variant amine-coupled to a CM5 chip, peptide flowed over, HBS-EP+; temperature not told for this result (25 °C or 37 °C).

Ile83Glu memAb anti-HER2 IgG, sequence (heavy, as listed by the source, chain 1 of 2): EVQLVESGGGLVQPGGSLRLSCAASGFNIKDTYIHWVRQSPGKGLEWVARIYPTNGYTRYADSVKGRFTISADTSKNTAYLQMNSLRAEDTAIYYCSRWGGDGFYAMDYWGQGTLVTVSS
Ile83Glu memAb anti-HER2 IgG, sequence (light, as listed by the source, chain 2 of 2): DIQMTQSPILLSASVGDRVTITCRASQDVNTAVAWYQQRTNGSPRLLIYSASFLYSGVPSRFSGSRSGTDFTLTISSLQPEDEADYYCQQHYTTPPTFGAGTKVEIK
memAb anti-HER2 (meditope-enabled, trastuzumab-based anti-HER2 antibody), sequence (heavy, as listed by the source, chain 1 of 2): as the sequence (heavy, as listed by the source, chain 1 of 2) above
memAb anti-HER2 (meditope-enabled, trastuzumab-based anti-HER2 antibody), sequence (light, as listed by the source, chain 2 of 2): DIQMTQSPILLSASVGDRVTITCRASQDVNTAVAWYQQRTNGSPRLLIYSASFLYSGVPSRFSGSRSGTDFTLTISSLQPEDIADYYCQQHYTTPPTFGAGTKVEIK
Ile83Glu anti-HER2 memAb, sequence (heavy, as listed by the source, chain 1 of 2): as the sequence (heavy, as listed by the source, chain 1 of 2) above
anti-HER2 memAb (trastuzumab-based, meditope-enabled anti-HER2 antibody), sequence (heavy, as listed by the source, chain 1 of 2): as above

In assay [1], Ac-CQFD[Dip]STRRLRCGGSK (disulfide 1-12 (inferred)) [5-diphenylalanine long meditope ((Ac)CQFDA(Ph)2…)] yielded a Kd below 0.026 nM and a koff below 1e-05 s⁻¹. In assay [2], this molecule registered a Kd of 0.4 nM and a half-life of 40 min.

For the molecule Ac-CQFDLSTRRLRCGGSK (disulfide 1-12 (inferred)) [long meditope (Ac)…], the Kd in assay [3] was 4 nM; in assay [4], 210 nM; in [5], 350 nM; in assay [6] it was 0.44 nM. The koff was 0.00063 s⁻¹ in assay [3], 0.006 s⁻¹ in assay [4], 0.026 s⁻¹ in assay [5] and 0.00031 s⁻¹ in [6]. Also, the kon in assay [3] is 160000 M⁻¹ s⁻¹; in [4], 28000 M⁻¹ s⁻¹; in assay [5] it was 75000 M⁻¹ s⁻¹; in [6], 710000 M⁻¹ s⁻¹.

B1: 5-diphenylalanine-8-Arg-(PEG)2-azidomeditope (peptide)
peptide: Ac-CQFD[Dip]STR([(PEG)2-azide])RLRCGGSK
modifications: disulfide 1-12 (inferred); also: arginine-(PEG)2-azide at position 8 by name (footnote: 9th place)
In [7], B1 showed an off-rate constant (koff) of 0.00014 s⁻¹ and a kon of 66000 M⁻¹ s⁻¹.

With CQFDLSTRRLKC (disulfide 1-12 (inferred)) [original meditope (…)], the Kd is 1200 nM in assay [8], 1000 nM in [9] and 23 nM in assay [10]. This molecule came in with a half-life in assay [9] of 0.267 min.

The molecule CQFDLSTRRLKC (disulfide 1-12) [original meditope …] had a Kd in assay [3] of 20 nM. Also, the koff is 0.0025 s⁻¹ in [3], 0.016 s⁻¹ in [4], 0.044 s⁻¹ in [5] and 0.00059 s⁻¹ in assay [6]. Also, the kon in assay [3] is 260000 M⁻¹ s⁻¹; in [4], 13000 M⁻¹ s⁻¹; in assay [5] it was 44000 M⁻¹ s⁻¹; in [6], 26000 M⁻¹ s⁻¹.

In general, Kd refers to a measure of binding affinity in units of concentration. As usually defined, the koff is the first-order rate constant of dissociation. The term half-life denotes the time in which the quantity being followed falls by half. Low values mean rapid decline, high ones slow decline. One may read the kon as the rate constant with which the complex forms.
